Article PMC10195879
Like-named read-outs stand apart in the source and are kept apart here.

Experiments:
[1] = biological target: GMPCPP-stabilized microtubules (bovine brain tubulin, TAMRA-labeled) (bovine) (UniProt Q6B856); assay: single-molecule TIRF microscopy
[2] = biological target: GMPCPP-stabilized microtubules (bovine brain tubulin, TAMRA-labeled) (bovine) (UniProt Q6B856); assay: single-molecule TIRF microscopy; remark: listed apart in the source

Chain of His-EGFP-L-TOG2-S (minimal construct of CLASP2α: short linker region, TOG2 domain and serine-arginine-rich region) (domain or fragment) (O75122 whole entry, the tested form may be a part): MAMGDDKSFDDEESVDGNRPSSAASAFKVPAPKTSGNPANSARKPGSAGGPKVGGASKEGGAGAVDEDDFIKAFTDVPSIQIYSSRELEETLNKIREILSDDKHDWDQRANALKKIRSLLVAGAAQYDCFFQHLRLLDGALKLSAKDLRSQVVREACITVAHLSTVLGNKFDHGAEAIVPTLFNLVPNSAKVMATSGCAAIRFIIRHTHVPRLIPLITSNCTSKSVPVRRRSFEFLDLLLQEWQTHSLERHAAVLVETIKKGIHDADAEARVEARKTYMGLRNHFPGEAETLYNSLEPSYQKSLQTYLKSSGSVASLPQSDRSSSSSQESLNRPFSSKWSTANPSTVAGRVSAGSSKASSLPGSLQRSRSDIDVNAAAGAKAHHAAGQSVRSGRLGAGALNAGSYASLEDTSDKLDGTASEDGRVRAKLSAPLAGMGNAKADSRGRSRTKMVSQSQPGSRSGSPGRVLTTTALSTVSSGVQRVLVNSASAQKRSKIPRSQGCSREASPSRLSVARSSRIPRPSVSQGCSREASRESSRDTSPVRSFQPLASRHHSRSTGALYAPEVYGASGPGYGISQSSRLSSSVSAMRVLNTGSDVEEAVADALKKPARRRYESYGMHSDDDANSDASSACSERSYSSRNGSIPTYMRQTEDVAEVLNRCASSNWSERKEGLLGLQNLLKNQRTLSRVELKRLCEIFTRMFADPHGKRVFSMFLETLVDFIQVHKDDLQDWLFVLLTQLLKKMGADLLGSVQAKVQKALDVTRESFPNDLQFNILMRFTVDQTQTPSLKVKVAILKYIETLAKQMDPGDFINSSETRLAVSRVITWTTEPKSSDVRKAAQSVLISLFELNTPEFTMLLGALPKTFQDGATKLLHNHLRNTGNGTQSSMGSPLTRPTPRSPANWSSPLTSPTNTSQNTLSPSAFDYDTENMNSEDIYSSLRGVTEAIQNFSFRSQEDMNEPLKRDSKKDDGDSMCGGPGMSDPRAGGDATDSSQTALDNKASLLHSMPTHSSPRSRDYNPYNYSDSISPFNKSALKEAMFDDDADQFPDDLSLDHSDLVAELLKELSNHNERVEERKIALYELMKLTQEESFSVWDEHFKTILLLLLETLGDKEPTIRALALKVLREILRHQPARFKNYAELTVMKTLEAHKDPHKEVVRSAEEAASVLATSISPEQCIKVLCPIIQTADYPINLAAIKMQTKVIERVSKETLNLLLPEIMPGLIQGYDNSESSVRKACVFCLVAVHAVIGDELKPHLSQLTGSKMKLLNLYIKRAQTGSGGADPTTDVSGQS

mean dwell time on microtubule ends [1]: 0.53 s
mean dwell time on microtubule ends [2]: 3.8 s
Substance: His-EGFP-L-TOG2-S (minimal construct of CLASP2α: short linker region, TOG2 domain and serine-arginine-rich region) (domain or fragment)
